{"source": "paper PMC7760338", "about": "“One Step Closer to Clinical Translation: Enhanced Tumor Targeting of [^99mTc]Tc-DB4 and [^111In]In-SG4 in Mice Treated with Entresto” (Pharmaceutics, 2020)", "key": {"in vivo": {"test": "in vivo", "details": "male, SCID, mouse, iv, 10 pmol, total radioactivity", "procedure": "(§1) Inocula of A431-CCK2R(+) and A431-CCK2R(−) cells (1.5 × 10^7 cells and 1.2 × 10^7 cells respectively, in 150 µL normal saline) were subcutaneously injected in the right and left flanks respectively, of 12 male SCID mice; in 5 more mice, a A431-CCK2R(+) cell suspension (1.5 × 10^7 cells in 150 µL normal saline) was subcutaneously injected instead on the neck of the animals. […] All animals were kept under aseptic conditions during this period and until biodistribution or imaging was conducted.\n(§2) For the biodistribution study, animals in groups of 4 received a 100 μL bolus of [^99mTc]Tc-DB4 via the tail vein (200 kBq, corresponding to 10 pmol total peptide in saline/EtOH 9/1 v/v—GRPR-tumor-bearing mice) or [^111In]In-SG4 (50 kBq, 10 pmol total peptide—twin A431-CCK2R(+)/A431-CCK2R(−) tumor-bearing mice) co-injected either with injection solution (100 μL; control) or with LBQ657 solution (100 µL injection solution containing 10 µg LBQ657). In additional sets of animals, mice received, by gavage, a single Entresto dose (12 mg/[…] per animal, prepared as described in Section 2.1.1) 30 min prior to injection of the respective radiotracer together with vehicle (100 μL; Entresto group), or with a [Tyr^4]BBN solution (100 μg in 100 μL vehicle; block group). Mice were euthanized at 4 h pi and dissected. Samples of blood, tumors and organs of interest were collected, weighed and measured for radioactivity in the γ-counter (an automated well-type gamma counter with a NaI(Tl) 3′’ crystal, Canberra Packard Auto-Gamma 5000 series instrument). Intestines and stomach were not emptied of their contents; exceptionally, in the case of [^111In]In-SG4-injected animals, stomachs were emptied of their contents. Data was calculated as percent injected activity per gram tissue (%IA/g) with the aid of standard solutions and represented as mean values ± standard deviation (SD), n = 4."}, "[1]": {"tested_on": "SCID mice bearing double A431-CCK2R(+/−) xenografts (CCK2R)", "test": "in vivo", "details": "SCID mice with double A431-CCK2R(+/−) xenografts, 4 h pi, 50 kBq/10 pmol peptide iv, γ-counter, mean ± SD, n = 4; for Biodistribution, Stomach: stomach emptied of contents; for Biodistribution, Intestines: intestines not emptied", "procedure": "as §1, §2"}, "[2]": {"tested_on": "A431-CCK2R(+) tumor-bearing mice", "details": "4 h after injection"}, "[3]": {"details": "Entresto: 12 mg/200 mL by gavage 30 min before, co-injected with vehicle"}, "[4]": {"details": "LBQ657: co-injected with 10 µg LBQ657"}}, "note": "Non-standard residues stand in square brackets, D forms with d. Residues, ends and D or L forms follow the SMILES beside them. *: point of attachment. DOTA = O=C(O)CN1CCN(CC(=O)O)CCN(CC(=O)*)CCN(CC(=O)O)CC1; Nle = CCCC[C@H](N)C(=O)O", "data": [{"smiles": "CCCC[C@H](NC(=O)[C@H](Cc1c[nH]c2ccccc12)NC(=O)CNC(=O)[C@H](Cc1ccc(O)cc1)NC(=O)[C@H](C)NC(=O)[C@@H](CCC(=O)O)NC(=O)CN1CCN(CC(=O)O)CCN(CC(=O)O)CCN(CC(=O)O)CC1)C(=O)N[C@@H](CC(=O)O)C(=O)N[C@@H](Cc1ccccc1)C(N)=O", "note": "[[^111In]In-SG4, metal not drawn] ({DOTA}-[dE]AYGW[Nle]DF-NH2)", "values": [{"measurement": "tissue uptake at 4 h", "setting": "in vivo; A431-CCK2R(+) tumor", "value": "3.07 ± 0.87", "unit": "%ID/g"}, {"measurement": "tissue uptake at 4 h", "setting": "in vivo; A431-CCK2R(−) tumor", "value": "0.28 ± 0.21", "unit": "%ID/g"}, {"measurement": "tissue uptake at 4 h", "setting": "in vivo; blood", "value": "0.03 ± 0.02", "unit": "%ID/g"}, {"measurement": "tissue uptake at 4 h", "setting": "in vivo; femur", "value": "0.1 ± 0.03", "unit": "%ID/g"}, {"measurement": "tissue uptake at 4 h", "setting": "in vivo; heart", "value": "0.05 ± 0.02", "unit": "%ID/g"}, {"measurement": "tissue uptake at 4 h", "setting": "in vivo; kidneys", "value": "2.1 ± 0.49", "unit": "%ID/g"}, {"measurement": "tissue uptake at 4 h", "setting": "in vivo; liver", "value": "0.15 ± 0.02", "unit": "%ID/g"}, {"measurement": "tissue uptake at 4 h", "setting": "in vivo; lungs", "value": "0.06 ± 0.01", "unit": "%ID/g"}, {"measurement": "tissue uptake at 4 h", "setting": "in vivo; muscle", "value": "0.03 ± 0.02", "unit": "%ID/g"}, {"measurement": "tissue uptake at 4 h", "setting": "in vivo; pancreas", "value": "0.08 ± 0.09", "unit": "%ID/g"}, {"measurement": "tissue uptake at 4 h", "setting": "in vivo; spleen", "value": "0.11 ± 0.04", "unit": "%ID/g"}, {"measurement": "Biodistribution, Stomach", "setting": "[1]; Controls: co-injected with vehicle", "value": "1.29 ± 0.25", "unit": "%IA/g"}, {"measurement": "Biodistribution, Femur", "setting": "[1]; [3]", "value": "0.14 ± 0.03", "unit": "%IA/g"}, {"measurement": "Biodistribution, Kidneys", "setting": "[1]; [3]", "value": "2.40 ± 0.61", "unit": "%IA/g"}, {"measurement": "Biodistribution, Pancreas", "setting": "[1]; [3]", "value": "0.34 ± 0.14", "unit": "%IA/g"}, {"measurement": "Biodistribution, Spleen", "setting": "[1]; [3]", "value": "0.22 ± 0.05", "unit": "%IA/g"}, {"measurement": "Biodistribution, Tumor (+) (A431-CCK2R(+))", "setting": "[1]; [3]", "value": "9.61 ± 1.70", "unit": "%IA/g"}, {"measurement": "Biodistribution, Tumor (–) (A431-CCK2R(−))", "setting": "[1]; [3]", "value": "0.40 ± 0.23", "unit": "%IA/g"}, {"measurement": "Biodistribution, Intestines", "setting": "[1]; [3]", "value": "0.34 ± 0.07", "unit": "%IA/g"}, {"measurement": "Biodistribution, Stomach", "setting": "[1]; [3]", "value": "2.86 ± 0.53", "unit": "%IA/g"}, {"measurement": "Biodistribution, Intestines", "setting": "[1]; [4]", "value": "0.49 ± 0.12", "unit": "%IA/g"}, {"measurement": "Biodistribution, Stomach", "setting": "[1]; [4]", "value": "3.10 ± 0.41", "unit": "%IA/g"}, {"measurement": "change of tumor uptake on SPECT/CT, Entresto-treated vs controls", "setting": "[2]; Entresto orally 30 min in advance (3 mice) vs controls (2 mice), A431-CCK2R(+) tumors, 5 MBq iv", "value": "notable increase in the tumor uptake"}, {"measurement": "accumulation in A431-CCK2R(+) xenografts on SPECT/CT images", "setting": "[2]; SCID mice bearing A431-CCK2R(+) tumors, 5 MBq HPLC-isolated iv, five mice", "value": "Significant accumulation"}]}]}
